{"source": "patent US20260116982A1", "target": "CD1a antigen on CD1a+ T-ALL cells (Jurkat, MOLT4, primary cortical T-ALL blasts) and cortical thymocytes (human) (UniProt P06126)", "assay": "cell-based or functional assay", "data": [{"substance": "CD1a CAR (second-generation chimeric antigen receptor with the anti-CD1a scFv derived from clone NA1/34.HLK, CD8 TM spacer, 4-1BB (CD137) and CD3ζ signaling domains), expressed on T cells", "values": [{"measurement": "specific cell lysis of CD1a+ T-ALL cell lines (Jurkat, MOLT4), 16 h assay, E:T 2:1 or 4:1", "result": "50 to 80", "unit": "%"}]}]}
